Experimental findings from paper PMC4646227, “Plasticity in PYD assembly revealed by cryo-EM structure of the PYD filament of AIM2” (Cell Discovery, 2015) are described below.

The target in data set [1] is ASC PYD (M1-Q105, S106C), fluorophore-labelled, MBP removed by TEV (UniProt Q9ULZ3). The experiment in a line: fluorescence polarisation; apparent; Alexa Fluor 488-labelled MBP-ASC PYD, same procedure, mCherry-NLRP6 PYD added as nucleator.
Data set [2] has as its target T1, ASC PYD (M1-Q105, S106C), fluorophore-labelled, MBP removed by TEV (UniProt Q9ULZ3 1-106, S106C, Alexa Fluor 568 on the engineered C-terminal Cys (maleimide); Alexa Fluor 488 instead in the experiment with mCherry-NLRP6^PYD).
T1 construct: Apoptosis-associated speck-like protein containing a CARD (ASC), Pyrin domain, M1-Q105 followed by an engineered Cys (S106C); also called labeled MBP-ASC^PYD (before cleavage); source: E. coli BL21(DE3), purified (Ni-NTA, SEC) as monomeric MBP fusion, labelled, MBP removed by TEV in the assay
Briefly: fluorescence polarisation; apparent; Alexa568-labelled MBP-ASC PYD, polymerisation started by TEV removal of MBP; initial rates of ASC PYD filament formation plotted against concentrations of added GFP-AIM2 PYD seeds. The note with it: both partners purified. (In general: Polarisation of emitted light reports the rotation of a fluorescent probe.)

Data set [3] deals with the molecule itself. Briefly: cryo-EM structure; helical reconstruction of His-GFP-AIM2 PYD filaments; sample in 20 mM HEPES pH 8.0, 150 mM NaCl, 2 mM dithiothreitol.

Sequence of ASC PYD (M1-Q105, S106C), fluorophore-labelled, MBP removed by TEV (UniProt Q9ULZ3) (Q9ULZ3 1-106 S106C): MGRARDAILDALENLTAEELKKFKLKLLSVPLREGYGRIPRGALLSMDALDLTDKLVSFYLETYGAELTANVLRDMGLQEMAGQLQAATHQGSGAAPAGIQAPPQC
T1 sequence (Q9ULZ3 1-106 S106C): as above

Take “mCherry-tagged NLRP6 PYD (domain or fragment)”: the Kd in data set [1] is 90 nM.

B1: His-GFP-tagged AIM2 PYD (M1-P100) (domain or fragment, human, UniProt O14862 1-100, looked up)
chain: MESKYKEILLLTGLDNITDEELDRFKFFLSDEFNIATGKLHTANRIQVATLMIQNAGAVSAVMKTIRIFQKLNYMLLAKRLQEEKEKVDKQYKSVTKPKP
notes: Absent in melanoma 2 (AIM2), human, Pyrin domain, residues M1-P100; Non-cleavable His-GFP tag from a pET28a backbone; A two-residue linker from the BamHI site joins GFP and AIM2 PYD; The protein forms filaments; also called GFP-AIM2^PYD; His-GFP-AIM2^PYD; source: E. coli BL21(DE3), purified (Ni-NTA, SEC; void fractions); not shown: His, N-terminal, kept; GFP (monomeric, M1-T230, A206K), …
For the molecule B1, the Kd in data set [2] is ~210 nM. Moreover, in data set [3], the binding result is “binds”.
